Assay results: US20230049152A1 (Genentech, published 2023)
Numbering of substitutions follows the chain as printed.

Assays:
human CCR8 [1] = target: T1, human CCR8 (human, UniProt P51685 1-355); assay: flow cytometry, CHO-huCCR8.Gna15 cells, relative to rb.Ab5
T1 construct: the assay field says which; also called hCCR8; huCCR8
Protocol: (§1) Evaluation of CCR8 binding of the humanized variants with a hIgG1 Fc involved screening by flow cytometry, and comparing the relative EC₅₀ and MFI on human CCR8 CHO cells to the parental rabbit antibodies. Specifically, stable CHO-huCCR8.Gna15 cells were stained with various concentrations (starting from 10 ug/ml or 66.66 nM, 1:4 serial dilution for total 8 concentration points) of Ab4 and Ab5 variants at 4° C. for 30 minutes, then washed twice with FACS buffer (PBS with 0.5% BSA and 0.2 mM EDTA) and followed by staining with AF647-anti-hIgG at 4° C. for 15 min. Cells were washed twice with FACS buffer, and re-suspended in FACS buffer with propidium iodide (0.5 ug/ml) and analyzed with iQue3 (Sartorius).

human CCR8 [2] = target: T1, human CCR8; assay: as above; remark: listed apart in the source
Protocol: as §1

human CCR8 [3] = target: T1, human CCR8; assay: flow cytometry, CHO-huCCR8.Gna15 cells, relative to rb.Ab4
Protocol: as §1

human CCR8 [4] = target: T1, human CCR8; assay: as above; remark: listed apart in the source
Protocol: as §1

human CCR8 [5] = target: T1, human CCR8; assay: cell-based or functional assay
human CCR8 [6] = target: T1, human CCR8; assay: cell-based or functional assay; remark: listed apart in the source
GST-FcgR3a.F158 [7] = target: T2, GST-FcgR3a.F158 (UniProt P08637 17-208, limits assumed); assay: ELISA, GST-FcgR3a captured by anti-GST antibody
T2 construct: Captured by anti-GST antibody on ELISA plate; also called FcgR3a.F158 protein; Fcgamma RIIIa F158; not shown: GST tag
T2 sequence (P08637 17-208 limits assumed): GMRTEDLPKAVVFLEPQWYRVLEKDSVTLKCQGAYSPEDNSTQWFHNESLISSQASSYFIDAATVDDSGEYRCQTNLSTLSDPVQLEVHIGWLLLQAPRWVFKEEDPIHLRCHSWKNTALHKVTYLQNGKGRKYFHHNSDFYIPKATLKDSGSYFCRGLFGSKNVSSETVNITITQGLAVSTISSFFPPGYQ
Protocol: (§2) The binding of fucosylated and afucosylated variants of hu.Ab5.H13L1 and hu.Ab4.H12L3 to both FcgR3a proteins by ELISA was studied. Briefly, an anti-GST antibody was coated on Nunc Maxisorp plates. GST-FcgR3a.V158 and GST-FcgR3a.F158 were captured at 500 ng/mL. Plates were then washed and then serially diluted anti-CCR8 antibodies starting at 100 ug/mL were incubated on the plate for 1 hour at room temperature. Plates were washed and bound antibody was detected by a HRP-conjugated anti-human IgG secondary antibody. Absorbance at 450 nm was measured by a plate reader. The data were fitted using a 4-parameter logistic curve in Softmax Pro.

GST-FcgR3a.V158 [8] = target: T3, GST-FcgR3a.V158 (UniProt P08637 17-208, limits assumed); assay: ELISA, GST-FcgR3a captured by anti-GST antibody
T3 construct: Captured by anti-GST antibody on ELISA plate; also called FcgR3a.V158 protein; Fcgamma RIIIa V158; not shown: GST tag
T3 sequence (P08637 17-208 F176V limits assumed): as the sequence (P08637 17-208 limits assumed) above, with F160V counted along it
Protocol: as §2

GST-FcgR3a.F158 [9] = target: T2, GST-FcgR3a.F158; assay: ELISA, GST-FcgR3a.F158 captured by anti-GST antibody
Protocol: as §2

GST-FcgR3a.V158 [10] = target: T3, GST-FcgR3a.V158; assay: ELISA, GST-FcgR3a.V158 captured by anti-GST antibody
Protocol: as §2

cyno CCR8 = target: T4, cyno CCR8 (cynomolgus monkey, UniProt O97665 1-356 (rhesus entry)); assay: whole-blood flow cytometry of cyno blood spiked ex vivo with a saturating concentration of the antibody, detected with labeled goat anti-human IgG on FoxP3+ T-reg cells; relative percentage of CCR8+ T-reg cells
T4 construct: also called cynomolgus monkey CCR8
T4 sequence (O97665 other isoform, or with tags, fused parts or gaps): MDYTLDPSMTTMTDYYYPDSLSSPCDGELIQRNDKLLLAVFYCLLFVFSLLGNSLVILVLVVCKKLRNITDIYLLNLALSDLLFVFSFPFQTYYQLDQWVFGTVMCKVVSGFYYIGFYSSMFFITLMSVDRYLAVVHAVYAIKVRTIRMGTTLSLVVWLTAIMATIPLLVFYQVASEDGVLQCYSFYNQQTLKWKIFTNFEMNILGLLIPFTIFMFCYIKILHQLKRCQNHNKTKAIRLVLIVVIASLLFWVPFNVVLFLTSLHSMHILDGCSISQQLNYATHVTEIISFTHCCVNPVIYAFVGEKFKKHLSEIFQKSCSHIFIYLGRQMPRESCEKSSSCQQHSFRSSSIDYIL
Protocol: Blood was collected from each of the animals before dosing (“Pre-study”), as well as on Day 1 at 0 hours (“Pre-dose”). Each of the animals were then administered a single dose of 10 mg/kg afucosylated anti-gD (Control Group), Afuc.hu.Ab5.H13L1 (Group 2) or Afuc.hu.Ab4.H12L3 (Group 3) via intravenous injection. Blood was then collected from the animals and subjected to the following treatment prior to flow cytometry analysis: (i) blood sample not spiked with either test CCR8 mAb (“unspiked”), (ii) blood sample further spiked with a saturating concentration of Afuc.hu.Ab5.H13L1, and (iii) blood sample further spiked with a saturating concentration of Afuc.hu.Ab4.H12L3. Each of the unspiked and spiked samples were subsequently treated with a labeled goat anti-human IgG antibody and analyzed by flow cytometry. […] Furthermore, flow cytometry of spiked blood also had very little effect on the total CCR8+T-reg cell count.
Anti-CCR8 antibodies Afuc.hu.Ab5.H13L1, Afuc.hu.Ab4.H12L3, and the control anti-gD were used for this study.

B1: rb.Ab5 (antibody, V domains shown)
VH: QSVEESGGRLVSPGTPLTLTCTVSGIDLSTYAMGWVRQAPGKGLEWIGLIHRSGRTYYATWAKGRFTISKTSSTTVDLKITSPTTEDTATYFCTRSYPDYSATASIWGPGTLVTVSS
VL: DIVVTQTPASVEAAVGGTVTIKCQASENIANALAWYQQKSGQPPMFLIYGASNLASGVSSRFKGSGSGTEFTLTISDLECADAAVYYCQCAYYGNSFVEGTFGGGTEVVVK
notes: Rabbit variable regions; also called parental rabbit antibody Ab5
Human CCR8 [1]
  Relative EC50: 1 ratio
  Relative MFI: 1 ratio
Human CCR8 [2]
  Relative EC50: 1 ratio
  Relative MFI: 1 ratio

B2: rb.Ab4 (antibody, V domains shown)
VH: QSVEESGGRLVTPGTPLTLTCTVSGFSLSNYAMIWVRQAPGEGLEWVGTISLGGYTYYANWAKGRFTISKTSTTVDLKISSPTTEDTATYFCARARWSTDSAIYTYAFDPWGPGTLVTVSS
VL: AYDMTQTPASVEVAVGGTVTIKCQASQSISSYLSWYQQKPGQRPELLIYKASTLASGVSSRFKGSGSGTQFTLTISDLECADAATYYCQQGYTSSNIDNIFGGGTEVVVK
notes: Rabbit variable regions; also called parental rabbit antibody Ab4
Human CCR8 [3]
  Relative EC50: 1 ratio
  Relative MFI: 1 ratio
Human CCR8 [4]
  Relative EC50: 1 ratio
  Relative MFI: 1 ratio

B3: Afuc.hu.Ab4.H12L3 (antibody, human IgG1, kappa)
heavy: not shown
light: DYQMTQSPSSLSASVGDRVTITCQASQSISSYLSWYQQKPGKAPKLLIYKASTLASGVPSRFSGSGSGTDFTLTISSLQPEDFATYYCQQGYTSSNIDNIFGGGTKVEIKRTVAAPSVFIFPPSDEQLKSGTASVVCLLNNFYPREAKVQWKVDNALQSGNSQESVTEQDSKDSTYSLSSTLTLSKADYEKHKVYACEVTHQGLSSPVTKSFNRGEC
modifications: afucosylated Fc N-glycan at position Asn299; between about 80% to about 95% afucosylation
notes: also called Afuc.Ab4.H12L3; afucosylated hu.Ab4.H12L3
Human CCR8 [5]
  ADCC EC50, NK-92 F158 cells (FIG. 11A): 0.006 nM
  ADCC EC50, NK-92 F158 cells (FIG. 11C): 0.006 nM
  ADCC EC50, NK-92 V158 cells (FIG. 11B): 0.011 nM
Human CCR8 [6]
  ADCP EC50, macrophages HR/FF (FIG. 14A): 0.025 nM
  ADCP EC50, macrophages HR/FF (FIG. 14E): 0.035 nM
  ADCP EC50, macrophages HR/VF (FIG. 14C): 0.017 nM
  ADCP EC50, macrophages RR/FF (FIG. 14B): 0.12 nM
  ADCP EC50, macrophages RR/VF (FIG. 14D): 0.079 nM
GST-FcgR3a.F158 [7]
  fold increase in binding potency versus fucosylated counterpart: ~10 fold
GST-FcgR3a.V158 [8]
  fold increase in binding potency versus fucosylated counterpart: ~10 fold
GST-FcgR3a.F158 [9]
  EC50: 0.08 µg/mL
GST-FcgR3a.V158 [10]
  EC50: 0.033 µg/mL
Cyno CCR8
  binding result: binds

B4: hu.Ab4.H1L2 (antibody, human IgG1, kappa)
heavy: not shown
light: B3 light with Y2I, A43R
Human CCR8 [3]
  Relative EC50: 1.06 ratio
  Relative MFI: 0.73 ratio

B5: hu.Ab4.H10L1 (antibody, human IgG1, kappa)
heavy: not shown
light: B3 light with A43R
Human CCR8 [4]
  Relative EC50: 1.07 ratio
  Relative MFI: 0.77 ratio

B6: hu.Ab4.H1L3 (antibody, human IgG1, kappa)
heavy: not shown
light: B3 light
Human CCR8 [3]
  Relative EC50: 1.23 ratio
  Relative MFI: 1 ratio

B7: hu.Ab4.H11L1 (antibody, human IgG1, kappa, V domains shown)
VH: EVQLLESGGGLVQPGGSLRLSCAASGFSLSNYAMIWVRQAPGKGLEWVSTISLGGYTYYANWAKGRFTISRDNSKNTLYLQMNSLRAEDTAVYYCARARWSTDSAIYTYAFDPWGQGTLVTVSS
VL: DYQMTQSPSSLSASVGDRVTITCQASQSISSYLSWYQQKPGKRPKLLIYKASTLASGVPSRFSGSGSGTDFTLTISSLQPEDFATYYCQQGYTSSNIDNIFGGGTKVEIKR
Human CCR8 [4]
  Relative EC50: 0.88 ratio
  Relative MFI: 0.66 ratio

B8: hu.Ab4.H1L4 (antibody, human IgG1, kappa)
heavy: not shown
light: B3 light with Y2I
Human CCR8 [3]
  Relative EC50: 1.04 ratio
  Relative MFI: 0.8 ratio

B9: Afuc.hu.Ab5.H13L1 (antibody, human IgG1, kappa)
heavy: not shown
light: DIQVTQSPSSLSASVGDRVTITCQASENIANALAWYQQKPGKPPKFLIYGASNLASGVPSRFSGSGSGTDFTFTISSLQPEDIATYYCQQAYYGNSFVEGTFGGGTKVEIKRTVAAPSVFIFPPSDEQLKSGTASVVCLLNNFYPREAKVQWKVDNALQSGNSQESVTEQDSKDSTYSLSSTLTLSKADYEKHKVYACEVTHQGLSSPVTKSFNRGEC
modifications: afucosylated Fc N-glycan at position Asn299; between about 80% to about 95% afucosylation
notes: also called Afuc.Ab5.H13L1; afucosylated hu.Ab5.H13L1
Human CCR8 [5]
  ADCC EC50, NK-92 F158 cells (FIG. 11A): 0.0047 nM
  ADCC EC50, NK-92 F158 cells (FIG. 11C): 0.003 nM
  ADCC EC50, NK-92 V158 cells (FIG. 11B): 0.0073 nM
Human CCR8 [6]
  ADCP EC50, macrophages HR/FF (FIG. 14A): 0.017 nM
  ADCP EC50, macrophages HR/FF (FIG. 14E): 0.022 nM
  ADCP EC50, macrophages HR/VF (FIG. 14C): 0.01 nM
  ADCP EC50, macrophages RR/FF (FIG. 14B): 0.2 nM
  ADCP EC50, macrophages RR/VF (FIG. 14D): 0.5 nM
GST-FcgR3a.F158 [7]
  fold increase in binding potency versus fucosylated counterpart: ~10 fold
GST-FcgR3a.V158 [8]
  fold increase in binding potency versus fucosylated counterpart: ~10 fold
GST-FcgR3a.F158 [9]
  EC50: 0.101 µg/mL
GST-FcgR3a.V158 [10]
  EC50: 0.035 µg/mL
Cyno CCR8
  binding result: binds

B10: hu.Ab5.H1L4 (antibody, human IgG1, kappa, V domains shown)
VH: EQQLLESGGGLVQPGGSLRLSCAVSGIDLSTYAMGWVRQAPGKGLEWIGLIHRSGRTYYATWAKGRFTISKDSSKTTVYLQMNSLRAEDTAVYFCTRSYPDYSATASIWGPGTTVTVSS
VL: DIQVTQSPSSLSASVGDRVTITCQASENIANALAWYQQKPGKPPKLLIYGASNLASGVPSRFSGSGSGTDFTFTISSLQPEDIATYYCQQAYYGNSFVEGTFGGGTKVEIKR
Human CCR8 [1]
  Relative EC50: 1.7 ratio
  Relative MFI: 0.51 ratio

B11: hu.Ab5.H1L3 (antibody, human IgG1, kappa, V domains shown)
VH: B10 VH
VL: B10 VL with P43A, L46F
Human CCR8 [1]
  Relative EC50: 1.5 ratio
  Relative MFI: 0.81 ratio

B12: hu.Ab5.H1L5 (antibody, human IgG1, kappa, V domains shown)
VH: B10 VH
VL: B10 VL with V4M, P43A
Human CCR8 [1]
  Relative EC50: 0.3 ratio
  Relative MFI: 0.31 ratio

B13: hu.Ab5.H1L2 (antibody, human IgG1, kappa)
heavy: not shown
light: B9 light with V4M
Human CCR8 [1]
  Relative EC50: 1.4 ratio
  Relative MFI: 0.79 ratio
